T1: Scaf-T single-cohesin scaffoldin (CBM with C. thermocellum cohesin) (Acetivibrio thermocellus (strain ATCC …, UniProt Q06851 361-706))
T1 construct: Individual single-cohesin scaffoldin; also called pScaf.T
T1 sequence: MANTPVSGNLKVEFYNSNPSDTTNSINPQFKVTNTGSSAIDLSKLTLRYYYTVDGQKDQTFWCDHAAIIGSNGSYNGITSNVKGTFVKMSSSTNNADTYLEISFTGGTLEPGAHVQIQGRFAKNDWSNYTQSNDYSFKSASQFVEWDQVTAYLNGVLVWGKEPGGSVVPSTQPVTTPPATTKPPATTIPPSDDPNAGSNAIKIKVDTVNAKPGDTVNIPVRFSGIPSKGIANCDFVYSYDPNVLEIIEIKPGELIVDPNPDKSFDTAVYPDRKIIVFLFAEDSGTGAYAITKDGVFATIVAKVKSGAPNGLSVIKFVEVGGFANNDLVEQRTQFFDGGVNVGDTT

T2: f-5A chimera (catalytic module of T. fusca family-5 endoglucanase Cel5A fused to a dockerin from Ruminococcus …)
T2 construct: Recombinant chimera expressed in E. coli; all enzyme constructs were designed to contain a His-tag; also called variant Cel5A
T2 chain: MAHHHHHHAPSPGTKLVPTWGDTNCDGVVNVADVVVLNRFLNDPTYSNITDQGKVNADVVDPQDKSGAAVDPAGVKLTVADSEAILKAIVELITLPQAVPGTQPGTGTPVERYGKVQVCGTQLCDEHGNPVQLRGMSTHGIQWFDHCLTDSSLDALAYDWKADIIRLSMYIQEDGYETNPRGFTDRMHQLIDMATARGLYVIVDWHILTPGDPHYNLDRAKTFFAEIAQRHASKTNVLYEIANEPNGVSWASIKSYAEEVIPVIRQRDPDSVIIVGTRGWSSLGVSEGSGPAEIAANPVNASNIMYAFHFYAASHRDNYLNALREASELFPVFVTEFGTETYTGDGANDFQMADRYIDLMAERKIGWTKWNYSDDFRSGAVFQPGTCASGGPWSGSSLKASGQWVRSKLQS

T3: b-48A chimera (catalytic module of T. fusca exoglucanase Cel48A ligated with a dockerin from the Bacteroides …)
T3 construct: Recombinant chimera; all enzyme constructs were designed to contain a His-tag; also called variant Cel48A
T3 chain: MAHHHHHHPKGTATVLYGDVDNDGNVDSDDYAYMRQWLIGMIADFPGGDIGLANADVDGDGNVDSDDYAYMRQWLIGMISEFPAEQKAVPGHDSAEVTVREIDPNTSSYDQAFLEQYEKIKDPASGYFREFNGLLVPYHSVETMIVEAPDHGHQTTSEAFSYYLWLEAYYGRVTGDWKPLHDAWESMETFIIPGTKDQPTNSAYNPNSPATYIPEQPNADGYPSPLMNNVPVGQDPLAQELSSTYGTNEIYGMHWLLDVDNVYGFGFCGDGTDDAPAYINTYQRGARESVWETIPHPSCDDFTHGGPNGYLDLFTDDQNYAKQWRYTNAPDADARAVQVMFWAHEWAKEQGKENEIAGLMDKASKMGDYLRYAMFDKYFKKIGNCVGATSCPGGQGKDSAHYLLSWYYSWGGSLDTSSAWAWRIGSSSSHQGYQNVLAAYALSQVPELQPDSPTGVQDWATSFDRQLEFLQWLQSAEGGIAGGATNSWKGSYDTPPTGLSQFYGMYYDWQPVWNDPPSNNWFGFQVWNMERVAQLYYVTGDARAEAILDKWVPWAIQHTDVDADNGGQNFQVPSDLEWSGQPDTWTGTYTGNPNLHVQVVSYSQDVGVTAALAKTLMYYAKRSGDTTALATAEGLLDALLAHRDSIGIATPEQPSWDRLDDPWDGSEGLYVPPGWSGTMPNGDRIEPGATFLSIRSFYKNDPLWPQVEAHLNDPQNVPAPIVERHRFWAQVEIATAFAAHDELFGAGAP

B1: Scaf AT chimeric scaffoldin (A. cellulolyticus cohesin 3, cellulose-binding CBM, cohesin 3 from the C. thermocellum CipA scaffoldin) (other)
chain: MDLQVDIGSTSGKAGSVVSVPITFTNVPKSGIYALSFRTNFDPQKVTVASIDAGSLIENASDFTTYYNNENGFASMTFEAPVDRARIIDSDGVFATINFKVSDSAKVGELYNITTNSAYTSFYYSGTDEIKNVVYNDGKIEVIASVPTNTPTNTPANTPVSGNLKVEFYNSNPSDTTNSINPQFKVTNTGSSAIDLSKLTLRYYYTVDGQKDQTFWCDHAAIIGSNGSYNGITSNVKGTFVKMSSSTNNADTYLEISFTGGTLEPGAHVQIQGRFAKNDWSNYTQSNDYSFKSASQFVEWDQVTAYLNGVLVWGKEPGGSVVPSTQPVTTPPATTKPPATTIPPSDDPNAIKIKVDTVNAKPGDTVNIPVRFSGIPSKGIANCDFVYSYDPNVLEIIEIKPGELIVDPNPDKSFDTAVYPDRKIIVFLFAEDSGTGAYAITKDGVFATIVAKVKSGAPNGLSVIKFVEVGGFANNDLVEQRTQFFDGGVNVGDIHHHHHH
B2: 10B-t chimera (catalytic module of T. fusca Xyn10B attached directly to dockerin S of Cel48S from Clostridium thermocellum) (enzyme)
chain: MASHHHHHHGPVHDHHPAPHSNAKSERLRWAAPDGFYIGSAVAGGGHHLEQDYPDPFTHDGKYRSILAQQFSSVSPENQMKWEYIHPEPDRYDFAMADKIVDFAERNDQKVRGHTLLWHSQNPEWLEEGDYSPEELREILRDHITTVVGRYAGRIHQWDVANEIFDEQGNLRTQENIWIRELGPGIIADAFRWAHEADPNAELFFNDYNVEGINPKSDAYYELIQELLDDGVPVHGFSVQGHLSTRYGFPGDLEQNLRRFDELGLATAITELDVRMDLPASGKPTPKQLEQQADYYQQALEACLAVEGCDSFTIWGFTDKYSWVPVFFPDEGAATIMTEKYERKPAFFALQQTLREARCADSPKPGPGKPKPGKGPKHDHCTSTYKVPGTPSTKLYGDVNDDGKVNSTDAVALKRYVLRSGISINTDNADLNEDGRVNSTDLGILKRYILKEIDTLPYKN
notes: Recombinant chimera expressed in E. coli, purified on a Ni column (His-tag); also called variant Xyn10B
B3: Scaf-A single-cohesin scaffoldin (CBM with A. cellulolyticus cohesin) (other)
chain: MANTPVSGNLKVEFYNSNPSDTTNSINPQFKVTNTGSSAIDLSKLTLRYYYTVDGQKDQTFWCDHAAIIGSNGSYNGITSNVKGTFVKMSSSTNNADTYLEISFTGGTLEPGAHVQIQGRFAKNDWSNYTQSNDYSFKSASQFVEWDQVTAYLNGVLVWGKEPGGSVVPSTQPVTTPPATTKPPATTIPPSDDPNAGSDLQVDIGSTSGKAGSVVSVPITFTNVPKSGIYALSFRTNFDPQKVTVASIDAGSLIENASDFTTYYNNENGFASMTFEAPVDRARIIDSDGVFATINFKVSDSAKVGELYNITTNSAYTSFYYSGTDEIKNVVYNDGKIEVIAS
notes: Individual single-cohesin scaffoldin; also called pScaf-A
B4: Scaf-ATF chimeric scaffoldin (cohesins A, T and F with the cellulose-binding CBM) (other)
chain: MDLQVDIGSTSGKAGSVVSVPITFTNVPKSGIYALSFRTNFDPQKVTVASIDAGSLIENASDFTTYYNNENGFASMTFEAPVDRARIIDSDGVFATINFKVSDSAKVGELYNITTNSAYTSFYYSGTDEIKNVVYNDGKIEVIASVPTNTPTNTPANTPVSGNLKVEFYNSNPSDTTNSINPQFKVTNTGSSAIDLSKLTLRYYYTVDGQKDQTFWCDHAAIIGSNGSYNGITSNVKGTFVKMSSSTNNADTYLEISFTGGTLEPGAHVQIQGRFAKNDWSNYTQSNDYSFKSASQFVEWDQVTAYLNGVLVWGKEPGGSVVPSTQPVTTPPATTKPPATTIPPSDDPNAIKIKVDTVNAKPGDTVNIPVRFSGIPSKGIANCDFVYSYDPNVLEIIEIKPGELIVDPNPDKSFDTAVYPDRKIIVFLFAEDSGTGAYAITKDGVFATIVAKVKSGAPNGLSVIKFVEVGGFANNDLVEQRTQFFDGGVNVGDIGSAGGLSAVQPNVSLGEVLDVSANRTAADGTVEWLIPTVTAAPGQTVTMPVVVKSSSLAVAGAQFKIQAATGVSYSSKTDGDAYGSGIVYNNSKYAFGQGAGRGIVAADDSVVLTLAYTVPADCAEGTYDVKWSDAFVSDTDGQNITSKVTLTDGAIIVHHHHHH
B5: Scaf-BF chimeric scaffoldin (cohesin from B. cellulosolvens ScaB, CBM3a from C. thermocellum, cohesin 1 from R. flavefaciens scaffoldin B) (other)
chain: MAGKSSPGNKMKIQIGDVKANQGDTVIVPITFNEVPVMGVNNCNFTLAYDKNIMEFISADAGDIVTLPMANYSYNMPSDGLVKFLYNDQAQGAMSIKEDGTFANVKFKIKQSAAFGKYSVGIKAIGSISALSNSKLIPIESIFKDGSITVTKVPTNTPTNTPANTPVSGNLKVEFYNSNPSDTTNSINPQFKVTNTGSSAIDLSKLTLRYYYTVDGQKDQTFWCDHAAIIGSNGSYNGITSNVKGTFVKMSSSTNNADTYLEISFTGGTLEPGAHVQIQGRFAKNDWSNYTQSNDYSFKSASQFVEWDQVTAYLNGVLVWGKEPGGSVVPSTQPVTTPPATTKPPATTIPPSEDPAGGLSAVQPNVSLGEVLDVSANRTAADGTVEWLIPTVTAAPGQTVTMPVVVKSSSLAVAGAQFKIQAATGVSYSSKTDGDAYGSGIVYNNSKYAFGQGAGRGIVAADDSVVLTLAYTVPADCAEGTYDVKWSDAFVSDTDGQNITSKVTLTDGAIIVHHHHHH
B6: Scaf-B single-cohesin scaffoldin (CBM with B. cellulosolvens cohesin) (other)
chain: MANTPVSGNLKVEFYNSNPSDTTNSINPQFKVTNTGSSAIDLSKLTLRYYYTVDGQKDQTFWCDHAAIIGSNGSYNGITSNVKGTFVKMSSSTNNADTYLEISFTGGTLEPGAHVQIQGRFAKNDWSNYTQSNDYSFKSASQFVEWDQVTAYLNGVLVWGKEPGGSVVPSTQPVTTPPATTKPPATTIPPSDDPNAGSGKSSPGNKMKIQIGDVKANQGDTVIVPITFNEVPVMGVNNCNFTLAYDKNIMEFISADAGDIVTLPMANYSYNMPSDGLVKFLYNDQAQGAMSIKEDGTFANVKFKIKQSAAFGKYSVGIKAIGSISALSNSKLIPIESIFKDGSITVTN
notes: Individual single-cohesin scaffoldin

Columns and labels:
[1] = biological target: B2; test: affinity-based ELISA; complex formation also by non-denaturing PAGE
[2] = biological target: T4, 11A-a chimera (catalytic module of T. fusca Xyn11A attached directly to dockerin B from Acetivibrio …); test: as above
T4 construct: Recombinant chimera expressed in E. coli, purified on a Ni column (His-tag)

[3] = biological target: T5, 11A-XBM-a chimera (catalytic module of T. fusca Xyn11A together with its adjacent XBM attached to dockerin B …); test: as above
T5 construct: Recombinant chimera expressed in E. coli, purified on a Ni column (His-tag); also called variant Xyn11A

[4] = biological target: T1, Scaf-T single-cohesin scaffoldin (CBM …); test: affinity-based ELISA
[5] = biological target: T4, 11A-a chimera (catalytic module of T. …); test: affinity-based ELISA
[6] = biological target: T5, 11A-XBM-a chimera (catalytic module of …); test: affinity-based ELISA
[7] = biological target: T2, f-5A chimera (catalytic module of T. …); test: affinity-based ELISA; complex formation also by non-denaturing PAGE
[8] = biological target: T3, b-48A chimera (catalytic module of T. …); test: as above
[9] = biological target: T3, b-48A chimera (catalytic module of T. …); test: affinity-based ELISA

Binder | binding result [1] | binding result [2] | binding result [3] | binding result [7] | other results
B1 | binds | binds | binds |  | 
B2 |  |  |  |  | binding result [4]: binds
B3 |  |  |  |  | binding result [5]: binds; binding result [6]: binds
B4 | binds | binds | binds | binds | 
B5 |  |  |  | binds | binding result [8]: binds
B6 |  |  |  |  | binding result [9]: binds

— patent US20120301930A1 (YEDA RESEARCH AND DEVELOPMENT, published 2012)
